This data set concerns the molecule itself. Briefly: cryo-EM structure.

B1: Vibrio alginolyticus PomB, full length, non-cleaved (without protease site insertion) (natural protein, UniProt O06874 1-315, looked up)
chain: MDDEDNKCDCPPPGLPLWMGTFADLMSLLMCFFVLLLSFSEMDVLKFKQIAGSMKFAFGVQNQLEVKDIPKGTSIIAQEFRPGRPEPTPIDVIMQQTMDITQQTLEFHEGESDRAGGTKRDEGKLTGGQSPATSTQNNESAEADMQQQQSKEMSQEMETLMESIKKALEREIEQGAIEVENLGQQIVIRMREKGAFPEGSAFLQPKFRPLVRQIAELVKDVPGIVRVSGHTDNRPLDSELYRSNWDLSSQRAVSVAQEMEKVRGFSHQRLRVRGMADTEPLLPNDSDDNRALNRRVEISIMQGEPLYSEEVPVIQ
Consider B1, for which the binding result was “binds”.

The values are drawn from doi:10.1101/2022.11.25.517900 (bioRxiv, 2022).
